This series in a line: yeast display, Sf9 membrane polyspecificity reagent, FACS + sequencing; frameworks hold sequencing errors. Summed up: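 Galactose-induced (36–48 hours) yeast carrying a synthetic nanobody display library were exposed to 10% biotinylated, detergent-solubilized Sf9 membrane reagent at 4 °C for 1 hour. FACS followed streptavidin microbead enrichment, using low and high (top ~1%) gates for expression (anti-HA) and reagent binding (streptavidin). Colony PCR, MiSeq 2 × 250 sequencing and CDR-length filtering followed. Labels for polyreactivity reflect the gate of origin.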
In the case of “QVQLVESGGGLVQAGGSLRLSCAASGSIFFYYAMGWYRQAPGKERELVAAINSDGSTNYADSVKGRFTISRDNAKNTVFLQMNSLKPEDTAVYYCAAEWFPYRWGYGYWGQGTEVTVSS”, the “polyreactivity (PSR sort gate)” value is on record as “low polyreactivity”.

As to “QVQLVESGGGLVQAGGSLRLSCAASGSIFFYYAMGWYRQAPGKERELVAAIRSGTSTNYADSVKGRFTISRDNAKNTVYLQMNSLKPEDTAVYYCAARFPGGGYGMDYWGQGTQVTVSS”, the “polyreactivity (PSR sort gate)” value was “low polyreactivity”.

Take “QVQLVESGGGLVQAGGSLRLSCAASGSIFFYYSMGWYRQAPGKERELVAAISLSGGRTYYADSVKGRSTISRDNAKNTVYLQMNSLKPEDTAVYYCNAASLSGRGQSYHYHGYDYWGQGTQVTVSS”: the “polyreactivity (PSR sort gate)” value is recorded as “high polyreactivity”.

With “QVQLVESGGGLVQAGGSLRLSCAASGSIFFYYTMGWYRQAPGKERELVAAISVGGSTYYADSVKGRFTISRDNAKNTVYLQMNSLKPEDTAVYYCNAVPAKGYVTVVRYYYWGQGTQVTVSS”, the “polyreactivity (PSR sort gate)” value was “low polyreactivity”.

Consider “QVQLVESGGGLVQAGGSLRLSCAASGSIFGAYAMGRYRQAPGKERELVAAITSGGSTNYADSVKGRFTISRDNAKNTVYLQMNSLKPEDTADYYCAARRRYAKFRYDYWGQGTQVTVSS”, for which the “polyreactivity (PSR sort gate)” value is recorded as “high polyreactivity”.

For the sequence “QVQLVESGGGLVQAGGSLRLSCAASGSIFGAYAMGWYRQAPGKERELVAAISGSGTSTYYADSVKGRFTISRDNAKNTVYLQMYSLKPEDTAVYYCAADGTYFYIYLGDRFDYWGQGTQVTVSS”, the “polyreactivity (PSR sort gate)” value was “low polyreactivity”.

On to “QVQLVESGGGLVQAGGSLRLSCAASGSIFGAYAMGWYRQAPGKERELVAAITWRGGSTYYADSVKGRFTISRDNAKNTVYLQMNSLKPEDTAVYYCAARYLRPDGDALTRYGYWGQGTQVTVSS”, for which the “polyreactivity (PSR sort gate)” value is on record as “high polyreactivity”.

For “QVQLVESGGGLVQAGGSLRLSCAASGSIFGAYAMGWYRQAPGKERELVAVISRSGGRTYYADSVKGRFTISRDNAKNTVYLQMNSLKPEDTAVYYCAASYPVPPYGMDYWGQGTQVTVSS”, the “polyreactivity (PSR sort gate)” value is recorded as “high polyreactivity”.

Take “QVQLVESGGGLVQAGGSLRLSCAASGSIFGAYAMGWYRQAPGKESELVAVIRWGGGSTYADSVKGRFTISRDNAKNTVYLQMNSLKPEDTAVYYCNRDKSWADLYSHAYDYWGQGTQVTVSS”: the “polyreactivity (PSR sort gate)” value is listed as “low polyreactivity”.

“QVQLVESGGGLVQAGGSLRLSCAASGSIFGAYTMGGYRQAPGKERELVAAITWSGGCTYYADSVKGRFTISRDNAKNTVYLQMNSLKPEDTAVYYCAAVFLRARYKYNYWGQGTQVTVSS”: the “polyreactivity (PSR sort gate)” value is reported as “high polyreactivity”.

For the sequence “QVQLVESGGGLVQAGGSLRLSCAASGSIFGDYAMGWYRQAPGKERELVAAIRYIGVSTYYADSVKGRFTISRDNAKNTVYLQMNSLKPEDTAVYYCAAEVYYEYYYWRYYWGQGTQVTVSS”, the “polyreactivity (PSR sort gate)” value is given as “high polyreactivity”.

Regarding “QVQLVESGGGLVQAGGSLRLSCAASGSIFGDYAMSWYRQAPGKERELVATITWIGGSTYYADSVKGRFTISRDNAKNTVYLQMNSLKPADTAVYYCAIYMGSYRLDYWGQGPQVTVSS”, the “polyreactivity (PSR sort gate)” value was “low polyreactivity”.

For the sequence “QVQLVESGGGLVQAGGSLRLSCAASGSIFGDYVMGWYRQAPGKERELVAAINRGGSTYYADSVKARFTISRDNAKNTVYLQMNSLKPEDTAVYYCAAGYPSWYYGYPYDSWGQGTQVTVSS”, the “polyreactivity (PSR sort gate)” value was “low polyreactivity”.

Consider “QVQLVESGGGLVQAGGSLRLSCAASGSIFGENAMGWDRQAPGKERELVAAITSGGSTDYADSVKGRFTISRDNAKNTVYLQMNSLKPEDTAVYYCAASGRVGPGYWYDSWGQGTQVTVSS”, for which the “polyreactivity (PSR sort gate)” value is “low polyreactivity”.

As to “QVQLVESGGGLVQAGGSLRLSCAASGSIFGENAMGWYRQATGKERELVAAITWGGTSTYYADSVKGRYTISRDNAKNTVYLQMNSLKPEDTAVYYCNTPRYVRRQGVKRYDYWGQGTQVTVSS”, the “polyreactivity (PSR sort gate)” value is recorded as “low polyreactivity”.

In the case of “QVQLVESGGGLVQAGGSLRLSCAASGSIFGEYAMGWSRQAPGKERELVATIRQSGDSTYYADSVKGRFTISRDNAKNTVYLQMNSLKPEDTEVYYCADDLWLYDYYSEYDYWGQGTQVTVSS”, the “polyreactivity (PSR sort gate)” value is “low polyreactivity”.

Regarding “QVQLVESGGGLVQAGGSLRLSCAASGSIFGFNAMGWYRQAPGKEREFVAAISKSGGSTYYADSVKGRFTISCDNAKNTVYLQMNSLKPEDTAVYYCNAKSRHYEPYDYWGQGTQVTVSS”, the “polyreactivity (PSR sort gate)” value is given as “high polyreactivity”.

Turning to “QVQLVESGGGLVQAGGSLRLSCAASGSIFGFNAMGWYRQAPGTERELVAAITWSGVSTYYADSVKGRFTISRDNAKNTVYLQMNSLKPEDTAVYYCAADVIIDWWYEMDYWGQGTQVTVSS”, the “polyreactivity (PSR sort gate)” value is reported as “high polyreactivity”.

As for “QVQLVESGGGLVQAGGSLRLSCAASGSIFGFNAMGWYRQARGKERELVAAINNGGSTNYADSVKGRFTISRDNAKNTVYLQMNSLKPEDTAVYYCAARLNYIRRGYWGQGTQVTVSS”, the “polyreactivity (PSR sort gate)” value is on record as “high polyreactivity”.

With “QVQLVESGGGLVQAGGSLRLSCAASGSIFGFNAMGWYSQAPGKEREMVAAINNGGSTNYADSVKGRFTISRDNAKNTVYLQMNSLKPEDTAVYYCAAVRFRPRRNEYWGQGTQVTVSS”, the “polyreactivity (PSR sort gate)” value was “high polyreactivity”.

As to “QVQLVESGGGLVQAGGSLRLSCAASGSIFGFYAMGWYRQAPGKERELVAAITFSGGSTDYADSVKGRFTISRDNAKNTVYLQMNSLKPEDTAVYYCAARGYAIYSYWYYEPYDYWGQGTQVTVSS”, the “polyreactivity (PSR sort gate)” value is listed as “high polyreactivity”.

On to “QVQLVESGGGLVQAGGSLRLSCAASGSIFGFYAMGWYRQAPGKERELVAGISYGDSSTYYADSVKGRFTISRDNAKNTVYLQMNSLKPEDTAVYYCAAGHRQKYNWGRYDYWGQGTQVTVSS”, for which the “polyreactivity (PSR sort gate)” value is reported as “low polyreactivity”.

For the sequence “QVQLVESGGGLVQAGGSLRLSCAASGSIFGGNAMGWYRQAPGKERELVATIDFSGTSTYYADSVKGRFTISRDNAKITVYLQMNSLKPEDTAVYYCAVRSGYVNRRYDYWGQGTQVTVSS”, the “polyreactivity (PSR sort gate)” value is reported as “low polyreactivity”.

In the case of “QVQLVESGGGLVQAGGSLRLSCAASGSIFGGYAMGWYRPAPGKERELVASITKSGDSTYADSVKGRFTISRDNAKNTVYLQMNSLKPEDTAVYDCAADSTFGKFEYWGQGTQVTVSS”, the “polyreactivity (PSR sort gate)” value is “low polyreactivity”.

Regarding “QVQLVESGGGLVQAGGSLRLSCAASGSIFGGYAMGWYRQAPGKERELVAAISSGGSTYYADSVKGRFTISRDNAKNTVYLQMNSLKPEDTAVYYCATSTYAYRRNSYDYTRPRFGYWGQGTQVTVSS”, the “polyreactivity (PSR sort gate)” value was “high polyreactivity”.

“QVQLVESGGGLVQAGGSLRLSCAASGSIFGGYAMGWYRQAPGKERELVAAISVSDDITYYADSVKGRFTISRDNAKNTVYLQMNSLKPEDTAVYYCAAEPDTNYVVRYDYWGQGTQVTVSS”: the “polyreactivity (PSR sort gate)” value is “high polyreactivity”.

Regarding “QVQLVESGGGLVQAGGSLRLSCAASGSIFGGYTMGWSRQAPGKERELVAGITISGGSTYYADSVKGRFTISRDNAKNTVYLQMNSLKPEDTAVYYCAAVSFVVSSWGYGYWGQGTQVTVSS”, the “polyreactivity (PSR sort gate)” value is “low polyreactivity”.

Consider “QVQLVESGGGLVQAGGSLRLSCAASGSIFGGYTMGWYRQAPGKERELVAAISARGGNTYYADSVKGRFTISRDNAKNTVYLQMNSLKPEDTAVYYCAKVRYTQSYRVYGYWGQGTQVTVSS”, for which the “polyreactivity (PSR sort gate)” value is reported as “high polyreactivity”.

In the case of “QVQLVESGGGLVQAGGSLRLSCAASGSIFGINAMGWYRQAPGKERELVAAITWSGGSTFYADSVKGRFTISRDNAKNTVYLQMTRLKPEDTAVYYCAADSGREPKGPSRLTYWGQGTQVTVSS”, the “polyreactivity (PSR sort gate)” value is recorded as “high polyreactivity”.

For “QVQLVESGGGLVQAGGSLRLSCAASGSIFGIYAMGWYRQAPGKERELVAAISSSGSTNYADSVKGRFTISRDNAKNTVYLQMNSLKPEDTAVYYCAAEQLSARWAYYYWGQGTQVTVSS”, the “polyreactivity (PSR sort gate)” value is listed as “low polyreactivity”.

For the sequence “QVQLVESGGGLVQAGGSLRLSCAASGSIFGIYVMGWYRQAPGKERELVAGISTRGGSTYYADSVKGRFTISRDNAKNTVYLQMNSLKPEDTAGYYCAAVPASYRDPMYYWGQGTQVTVSS”, the “polyreactivity (PSR sort gate)” value is on record as “low polyreactivity”.

As to “QVQLVESGGGLVQAGGSLRLSCAASGSIFGKYALGWYRQAPGIERELVAAISGRGGGTYYADSVKGRFTISRDNAKNTVYLQVNRLNPEDTGVYYCNAYYSRLRYDYWGQGTQVTVSS”, the “polyreactivity (PSR sort gate)” value is recorded as “high polyreactivity”.

“QVQLVESGGGLVQAGGSLRLSCAASGSIFGKYTMGWYRQAPGKERELVAGITYRAGSTYYADSVKGRFTISRDNAKNTVYLQMNSLKPEDTAVYYCAARFYFRWYYYGSYANYWGQGTQVTVSS”: the “polyreactivity (PSR sort gate)” value was “high polyreactivity”.

As for “QVQLVESGGGLVQAGGSLRLSCAASGSIFGLYAMGWYIQAPGKERELVATISKSGVSTYYADSVKGRFTISRDNEKNTVYLQMKSLKPEVTAVYYCNADISRDNDFDYWGQGTQVTVSA”, the “polyreactivity (PSR sort gate)” value is reported as “low polyreactivity”.

In the case of “QVQLVESGGGLVQAGGSLRLSCAASGSIFGLYAMGWYRQAPGKETELVAAINWNGGDTYYADSVKGRFTISRDNAKNPVYLQMNSLKPEDTAVYYCAAEQYRYGIRRRHYDYWGQGTQVTVSS”, the “polyreactivity (PSR sort gate)” value is recorded as “low polyreactivity”.

In the case of “QVQLVESGGGLVQAGGSLRLSCAASGSIFGLYAMGWYRQAPGNERELVAAINQSGGSTSYADSVKGRFTISRDNAKNTVYLQMNSLKPEDTAVYYCAAKRSWGATRRAYGRYDYWGQGTQVTVSS”, the “polyreactivity (PSR sort gate)” value was “low polyreactivity”.

In the case of “QVQLVESGGGLVQAGGSLRLSCAASGSIFGNAMGWYRQAPGKERELVAAITRGVSTYYADSVKGRFTISRDNAKNTVYLQMNSLKPEDTAVYYCNKTYVRGVHGVYLPITSYDYWGQGTQVTVSS”, the “polyreactivity (PSR sort gate)” value is reported as “low polyreactivity”.

On to “QVQLVESGGGLVQAGGSLRLSCAASGSIFGNAMGWYRQAPGKEREVVAAISSSGSSTYYADSVKGRFTISRDNAKNTVYFQMNSLKPEDTAVYYCAKRRRSAAPKYDYWGQGTQVTVSS”, for which the “polyreactivity (PSR sort gate)” value is on record as “high polyreactivity”.

On to “QVQLVESGGGLVQAGGSLRLSCAASGSIFGNNAMGWYRQARGKERELVAVITDGGNTYYADSVKGRFTISRDNAKNTVYLQMNSLKPEDTAVYYCNADWWGDSDYWGQGTQVTVSS”, for which the “polyreactivity (PSR sort gate)” value was “low polyreactivity”.

Take “QVQLVESGGGLVQAGGSLRLSCAASGSIFGPYAMGWYRQAPGKERELVAAITKSGGSTYYADSVKGRFTISRDNAKNTVYLQMNSLKPEDTSVYYCAADYGHEYWGQGTQVTVSS”: the “polyreactivity (PSR sort gate)” value is recorded as “low polyreactivity”.

In the case of “QVQLVESGGGLVQAGGSLRLSCAASGSIFGPYAMGWYRQAPGKERELVAAITSGGSTYYADSVKGRFTISRDNAKNTVYLQMNSLKPEDTAVYYCNAESYFWDFYDYDHWGQGTQVTLSS”, the “polyreactivity (PSR sort gate)” value is on record as “low polyreactivity”.

Values taken from the nanobody polyreactivity screen of Harvey et al. (2022).
